Reference: patent US20160159862A1 (PROTAGONIST THERAPEUTICS, published 2016)
Bridge positions count the residues as written; N and C are the ends. Square brackets hold non-standard residues; d marks the D form. Ends that are not written are not given here. * marks the point of attachment. Phe(4-CF3) = N[C@@H](Cc1ccc(C(F)(F)F)cc1)C(=O)O; Phe(4-tBu) = CC(C)(C)c1ccc(C[C@H](N)C(=O)O)cc1; 2Nal = N[C@@H](Cc1ccc2ccccc2c1)C(=O)O; d1Nal = N[C@H](Cc1cccc2ccccc12)C(=O)O; d2Nal = N[C@H](Cc1ccc2ccccc2c1)C(=O)O; Oleoyl = CCCCCCCC/C=C\CCCCCCCC(=O)*; NMeR = CN[C@@H](CCCNC(=N)N)C(=O)O; Palmitoyl = CCCCCCCCCCCCCCCC(=O)*; hPhe = N[C@@H](CCc1ccccc1)C(=O)O; Myristoyl = CCCCCCCCCCCCCC(=O)*; NMeE = CN[C@@H](CCC(=O)O)C(=O)O; β3hE = N[C@@H](CCC(=O)O)CC(=O)O; Pen = CC(C)(S)[C@H](N)C(=O)O; dNMeK = CN[C@H](CCCCN)C(=O)O; Lauroyl = CCCCCCCCCCCC(=O)*; Isovaleryl = CC(C)CC(=O)*; Hexanoyl = CCCCCC(=O)*

Biological target: α4β7 integrin on human cells (human, UniProt P13612 34-1032; P26010 20-798)
Assay: cell-based or functional assay

B1: SEQ ID NO 173 (peptide)
peptide: Ac-[Pen][NMeR]SDTL[Pen][Phe(4-tBu)][b‑H‑E][dK]
modifications: disulfide 1-7 (inferred); not fully specified (residue 10); also: lauroyl (lauroyl chloride) attached after k
**Q.** B1 was tested. Which “α4β7 cell (Hu) IC50” value did it give?
**A.** > 100 nM

**Q.** Ac-C[NMeR]SDTL[Pen]W[dK]-NH2 (disulfide 1-7 (inferred); also: homodimer via PEG13 linker) [SEQ ID NO 36] was tested. Which “α4β7 cell (Hu) IC50” value did it give?
**A.** > 50 nM

B2: SEQ ID NO 171 (peptide)
peptide: Ac-[Pen][NMeR]SDTL[Pen][Phe(4-tBu)][b‑H‑E][dK]
modifications: disulfide 1-7 (inferred); not fully specified (residue 10); also: isovaleric acid attached after k
**Q.** How did the “α4β7 cell (Hu) IC50” value turn out when B2 was run?
**A.** > 10 nM

**Q.** With Ac-[Pen][NMeR]SDTQ[Pen][Phe(4-tBu)][β3hE][dK]-NH2 (disulfide 1-7 (inferred); also: homodimer via IDA) [SEQ ID NO 187] as the binder, how does the “α4β7 cell (Hu) IC50” value read?
**A.** > 100 nM

**Q.** Ac-[Pen][NMeR]SDTL[Pen][2Nal][dE][dNMeK]-NH2 (disulfide 1-7 (inferred); also: homodimer via DIG linker) [SEQ ID NO 39] was tested. Which “α4β7 cell (Hu) IC50” value did it give?
**A.** > 10 nM

**Q.** For Ac-[Pen][NMeR]SQIQ[Pen][Phe(4-tBu)][β3hE][dK]-NH2 (disulfide 1-7 (inferred); also: homodimer via IDA, Alexa-647 label on IDA) [SEQ ID NO 192], which “α4β7 cell (Hu) IC50” value is on record?
**A.** > 10000 nM

**Q.** For Palmitoyl-[Pen][NMeR]SDTL[Pen][Phe(4-tBu)][β3hE][dK]-NH2 (disulfide 1-7 (inferred)) [SEQ ID NO 178], which “α4β7 cell (Hu) IC50” value is on record?
**A.** > 1000 nM

**Q.** Which “α4β7 cell (Hu) IC50” value does the source give for Ac-[Pen][NMeR]SDTL[Pen][dW]E[dK]-NH2 (disulfide 1-7 (inferred); also: homodimer via DIG) [SEQ ID NO 28] here?
**A.** > 50 nM

**Q.** What does the source list for Ac-[Pen][NMeR]SDTL[Pen][Phe(4-tBu)][b‑H‑E][dK]-OH (disulfide 1-7 (inferred); also: homodimer via DIG) [SEQ ID NO 168]?
**A.** PBMC IC50: ≤ 10 nM; α4β7 cell (Hu) IC50: ≤ 10 nM

**Q.** How did the “α4β7 cell (Hu) IC50” value turn out when Ac-[Pen][NMeR]SDTL[Pen][d1Nal]E[dK]-NH2 (disulfide 1-7 (inferred); also: homodimer via DIG linker) [SEQ ID NO 34] was run?
**A.** > 25 nM

**Q.** Ac-[Pen][NMeR]SDTL[Pen][hPhe]E[dK]-NH2 (disulfide 1-7 (inferred); also: homodimer via DIG linker) [SEQ ID NO 45] was tested. Which “α4β7 cell (Hu) IC50” value did it give?
**A.** > 25 nM

**Q.** With Ac-[Pen][NMeR]SDTL[Pen][Phe(4-CF3)][dE][dK]-NH2 (disulfide 1-7 (inferred); also: homodimer via DIG linker) [SEQ ID NO 3] as the binder, how does the “α4β7 cell (Hu) IC50” value read?
**A.** > 25 nM

**Q.** Which “PBMC IC50” value does the source give for Ac-[Pen][NMeR]SDTL[Pen][Phe(4-tBu)][b‑H‑E]-NH2 (disulfide 1-7 (inferred)) [SEQ ID NO 165] here?
**A.** > 100 nM

**Q.** What about the “α4β7 cell (Hu) IC50” value of the same binder?
**A.** > 10 nM

**Q.** Which “α4β7 cell (Hu) IC50” value does the source give for Myristoyl-[Pen][NMeR]SDTL[Pen][Phe(4-tBu)][β3hE][dK]-NH2 (disulfide 1-7 (inferred)) [SEQ ID NO 181] here?
**A.** > 1000 nM

**Q.** With Ac-[Pen][NMeR]SDTL[Pen][Phe(4-tBu)][b‑H‑E][dK]-NH2 (disulfide 1-7 (inferred); also: homodimer via IDA) [SEQ ID NO 166] as the binder, how does the “PBMC IC50” value read?
**A.** ≤ 10 nM

**Q.** And the “α4β7 cell (Hu) IC50” value?
**A.** ≤ 10 nM

**Q.** For Ac-C[NMeR]SDTL[Pen]W[dK]-NH2 (disulfide 1-7 (inferred); also: homodimer via PEG25 linker) [SEQ ID NO 37], which “α4β7 cell (Hu) IC50” value is on record?
**A.** > 100 nM

**Q.** How did the “α4β7 cell (Hu) IC50” value turn out when Ac-[Pen][NMeR]SDTL[Pen][dF][dE][dK]-NH2 (disulfide 1-7 (inferred); also: homodimer via DIG) [SEQ ID NO 2] was run?
**A.** > 100 nM

**Q.** For Ac-[Pen][NMeR]SDIL[Pen][Phe(4-tBu)][β3hE][dK]-NH2 (disulfide 1-7 (inferred); also: homodimer via IDA) [SEQ ID NO 186], which “α4β7 cell (Hu) IC50” value is on record?
**A.** > 100 nM

**Q.** How did the “α4β7 cell (Hu) IC50” value turn out when Ac-[Pen][NMeR]SDTL[Pen][d2Nal]E[dK]-NH2 (disulfide 1-7 (inferred); also: homodimer via DIG linker) [SEQ ID NO 35] was run?
**A.** > 100 nM

**Q.** For Ac-[Pen][NMeR]SDIL[Pen][Phe(4-tBu)][β3hE][dK]-NH2 (disulfide 1-7 (inferred); also: homodimer via IDA, Alexa-647 label on IDA) [SEQ ID NO 188], which “α4β7 cell (Hu) IC50” value is on record?
**A.** ≤ 10 nM

B3: SEQ ID NO 169 (peptide)
peptide: Ac-[Pen][NMeR]SDTL[Pen][Phe(4-tBu)][b‑H‑E][dK]
modifications: disulfide 1-7 (inferred); not fully specified (residue 10); also: 4,4,4-trifluorobutyric acid attached after k
**Q.** How did the “α4β7 cell (Hu) IC50” value turn out when B3 was run?
**A.** > 10 nM

**Q.** With Lauroyl-[Pen][NMeR]SDTL[Pen][Phe(4-tBu)][β3hE][dK]-NH2 (disulfide 1-7 (inferred)) [SEQ ID NO 179] as the binder, how does the “α4β7 cell (Hu) IC50” value read?
**A.** > 100 nM

B4: SEQ ID NO 174 (peptide)
peptide: Ac-[Pen][NMeR]SDTL[Pen][Phe(4-tBu)][b‑H‑E][dK]
modifications: disulfide 1-7 (inferred); not fully specified (residue 10); also: oleoyl (oleoyl chloride) attached after k
**Q.** How did the “α4β7 cell (Hu) IC50” value turn out when B4 was run?
**A.** > 1000 nM

B5: SEQ ID NO 172 (peptide)
peptide: Ac-[Pen][NMeR]SDTL[Pen][Phe(4-tBu)][b‑H‑E][dK]
modifications: disulfide 1-7 (inferred); not fully specified (residue 10); also: palmitoyl (palmitoyl chloride) attached after k
**Q.** How did the “α4β7 cell (Hu) IC50” value turn out when B5 was run?
**A.** 965 nM

**Q.** For Isovaleryl-[Pen][NMeR]SDTL[Pen][Phe(4-tBu)][b‑H‑E][dK]-NH2 (disulfide 1-7 (inferred)) [SEQ ID NO 177], which “α4β7 cell (Hu) IC50” value is on record?
**A.** > 50 nM

**Q.** How did the “PBMC IC50” value turn out when Ac-[Pen][NMeR]SDTL[Pen][Phe(4-tBu)][b‑H‑E][dK]-NH2 (disulfide 1-7 (inferred); also: homodimer via IDA-PEG4-Biotin) [SEQ ID NO 167] was run?
**A.** ≤ 10 nM

**Q.** And the “α4β7 cell (Hu) IC50” value?
**A.** ≤ 10 nM

B6: SEQ ID NO 175 (peptide)
peptide: Ac-[Pen][NMeR]SDTL[Pen][Phe(4-tBu)][b‑H‑E][dK]
modifications: disulfide 1-7 (inferred); not fully specified (residue 10); also: myristoyl (myristoyl chloride) attached after k
**Q.** B6 was tested. Which “α4β7 cell (Hu) IC50” value did it give?
**A.** > 500 nM

**Q.** For Hexanoyl-[Pen][NMeR]SDTL[Pen][Phe(4-tBu)][b‑H‑E][dK]-NH2 (disulfide 1-7 (inferred)) [SEQ ID NO 176], which “α4β7 cell (Hu) IC50” value is on record?
**A.** > 50 nM

**Q.** With Ac-[Pen][NMeR]SDDL[Pen][Phe(4-tBu)][β3hE][dK]-NH2 (disulfide 1-7 (inferred); also: homodimer via IDA) [SEQ ID NO 191] as the binder, how does the “α4β7 cell (Hu) IC50” value read?
**A.** > 10000 nM

B7: SEQ ID NO 170 (peptide)
peptide: Ac-[Pen][NMeR]SDTL[Pen][Phe(4-tBu)][b‑H‑E][dK]
modifications: disulfide 1-7 (inferred); not fully specified (residue 10); also: hexanoic acid attached after k
**Q.** With B7 as the binder, how does the “α4β7 cell (Hu) IC50” value read?
**A.** > 10 nM

**Q.** How did the “α4β7 cell (Hu) IC50” value turn out when Ac-[Pen][NMeR]SDTL[Pen][dF]E[dK]-NH2 (disulfide 1-7 (inferred); also: homodimer via DIG linker) [SEQ ID NO 30] was run?
**A.** > 100 nM

**Q.** With Ac-[Pen][NMeR]SQIQ[Pen][Phe(4-tBu)][β3hE][dK]-NH2 (disulfide 1-7 (inferred); also: homodimer via DIG) [SEQ ID NO 189] as the binder, how does the “α4β7 cell (Hu) IC50” value read?
**A.** > 10000 nM

**Q.** How did the “α4β7 cell (Hu) IC50” value turn out when Ac-[Pen][NMeR]SDTL[Pen]W[NMeE][dK]-NH2 (disulfide 1-7 (inferred); also: homodimer via DIG linker) [SEQ ID NO 31] was run?
**A.** > 50 nM

**Q.** How did the “α4β7 cell (Hu) IC50” value turn out when Oleoyl-[Pen][NMeR]SDTL[Pen][Phe(4-tBu)][β3hE][dK]-NH2 (disulfide 1-7 (inferred)) [SEQ ID NO 180] was run?
**A.** > 1000 nM

**Q.** Which “α4β7 cell (Hu) IC50” value does the source give for Ac-[Pen][NMeR]SDDL[Pen][Phe(4-tBu)][β3hE][dK]-NH2 (disulfide 1-7 (inferred); also: homodimer via IDA, Alexa-647 label on IDA) [SEQ ID NO 193] here?
**A.** > 100000 nM

**Q.** Which “α4β7 cell (Hu) IC50” value does the source give for Ac-[Pen][NMeR]SQIQ[Pen][Phe(4-tBu)][β3hE][dK]-NH2 (disulfide 1-7 (inferred); also: homodimer via IDA) [SEQ ID NO 190] here?
**A.** > 100000 nM
